The target of data set [1] is γ-Resorcylate decarboxylase (γ-RSD) from Polaromonas sp. JS666, His6-tagged (Polaromonas sp. JS666). Briefly: crystal structure.
Substrate in data set [2]: O=C(O)c1c(O)cccc1O
As to the kind of experiment: purified protein. The class given is biochemical, Polaromonas sp. JS666. Conditions: 50 mM HEPES pH 7.0, 30 °C.

Substrate in data set [3]: O=C(O)c1c(O)cc(O)cc1O
As to the kind of experiment: purified protein. It counts as biochemical, Polaromonas sp. JS666. Conditions: 50 mM HEPES pH 7.0, 30 °C.

Substrate in data set [4]: O=C(O)c1cccc(O)c1O
As to the kind of experiment: purified protein. It counts as biochemical, Polaromonas sp. JS666. The note with it: 50 mM HEPES pH 7.0, 30 °C.

Substrate in data set [5]: Cc1cc(O)c(C(=O)O)c(O)c1
As to the kind of experiment: purified protein. It counts as biochemical, Polaromonas sp. JS666. The note with it: 50 mM HEPES pH 7.0, 30 °C.

Consider “γ-Resorcylate decarboxylase (γ-RSD) from Polaromonas sp. JS666, His6-tagged (enzyme)”, for which the stoichiometry N (usually the number of molecules, sites or subunits per partner or assembly) in data set [1] was determined as 4.

B1: γ-RSD (γ-resorcylate decarboxylase) (Polaromonas sp. JS666) (protein)
chain: MNGKIALEEHFATEETLMDSAGFVPDKDWPELRSRLLDIQDRRVRLMDEHGIETMILSLNAPAVQAIADSTRANETARRANDFLAEQVAKQPTRFRGFAALPMQDPELAARELERCVKELGFVGALVNGFSQDNRSAVPLYYDMAQYWPFWETVQALDVPFYLHPRNPLPSDARIYDGHAWLLGPTWAFGQETAVHALRLMGSGLFDKYPALKIILGHMGEGLPYSMWRIDHRNAWIKTTPKYPAKRKIVDYFNENFYLTTSGNFRTQTLIDAILEIGADRILFSTDWPFENIDHAADWFENTSISEADRKKIGWGNAQNLFKLNR
Regarding B1, the Michaelis constant (Km) (in general, the substrate concentration at which the rate is half of its maximum) worked out at 32 ± 2 µM in the data set “purified protein [2]”, 48 ± 1 µM in the data set “purified protein [3]”, 111 ± 11 µM in “purified protein [4]” and 79 ± 6 µM in “purified protein [5]”. For the same molecule, the kcat (commonly the number of substrate molecules converted per active site and unit of time at saturation) in the data set “purified protein [2]” amounted to 0.44 ± 0.01 s⁻¹; in “purified protein [3]”, 0.18 ± 0.01 s⁻¹; in “purified protein [4]” it was 0.47 ± 0.02 s⁻¹; in “purified protein [5]”, 0.38 ± 0.01 s⁻¹. The kcat/Km (in general, the second-order rate constant that governs catalysis at low substrate concentration) in “purified protein [2]” amounted to 13000 ± 1000 M⁻¹ s⁻¹; in “purified protein [3]”, 3800 ± 300 M⁻¹ s⁻¹; in “purified protein [4]”, 4200 ± 500 M⁻¹ s⁻¹; in the data set “purified protein [5]” it was 4800 ± 400 M⁻¹ s⁻¹.

(Values after publication PMC5988983.)
